Laboratory results published in patent US20250177373A1.

How the values were obtained:
[1] = molecular target: gp41-inter (HIV-1; HIV-1 clade A isolate 92UG037.8); assay: fluorescence anisotropy/polarization, FITC-labeled 2F5 Fab held at 50 nM, gp41-inter titrated; the concentration read is that of gp41-inter
[2] = molecular target: gp41-inter (HIV-1; HIV-1 clade A isolate 92UG037.8); assay: fluorescence anisotropy/polarization; FITC-4E10 Fab, gp41-inter titrated
[3] = molecular target: gp41-inter (HIV-1; HIV-1 clade A isolate 92UG037.8); assay: fluorescence anisotropy/polarization, FITC-labeled 4E10 Fab, gp41-inter titrated; the concentration read is that of gp41-inter

Row | Substance | EC50 (read off the curve) [1] | Kd [2] | EC50 (read off the curve) [3]
1 | 2F5 Fab | 10 nM |  | 
2 | 4E10 Fab |  | 23 nM | 20 nM
